Biological target: Akt WT (transfected) (UniProt P31749)
Experiment: co-immunoprecipitation (K8/K18 IP, Akt immunoblot, quantified)
Conditions: BHK-21 cells transfected with Akt WT, K8 WT and the K18 mutant; parent: est. 1.0; read off a plot

Sequence of Akt WT (transfected) (P31749 whole entry): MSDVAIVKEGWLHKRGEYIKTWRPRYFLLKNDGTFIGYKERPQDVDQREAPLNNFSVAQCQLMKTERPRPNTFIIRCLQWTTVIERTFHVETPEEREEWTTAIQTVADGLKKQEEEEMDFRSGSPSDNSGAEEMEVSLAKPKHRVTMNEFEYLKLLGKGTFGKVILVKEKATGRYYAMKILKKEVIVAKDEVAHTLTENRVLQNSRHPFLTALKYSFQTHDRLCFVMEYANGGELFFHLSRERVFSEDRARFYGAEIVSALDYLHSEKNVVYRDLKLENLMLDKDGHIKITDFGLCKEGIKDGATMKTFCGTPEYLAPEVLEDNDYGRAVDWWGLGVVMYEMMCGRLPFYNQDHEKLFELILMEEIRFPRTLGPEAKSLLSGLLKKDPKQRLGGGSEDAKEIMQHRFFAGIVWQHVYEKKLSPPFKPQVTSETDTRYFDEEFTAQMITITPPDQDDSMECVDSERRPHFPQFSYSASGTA
Sequence of K8 WT/K18 WT (transfected) (from UniProt P05787;P05783) K18:I149V (P05787 whole entry, stated change not applied): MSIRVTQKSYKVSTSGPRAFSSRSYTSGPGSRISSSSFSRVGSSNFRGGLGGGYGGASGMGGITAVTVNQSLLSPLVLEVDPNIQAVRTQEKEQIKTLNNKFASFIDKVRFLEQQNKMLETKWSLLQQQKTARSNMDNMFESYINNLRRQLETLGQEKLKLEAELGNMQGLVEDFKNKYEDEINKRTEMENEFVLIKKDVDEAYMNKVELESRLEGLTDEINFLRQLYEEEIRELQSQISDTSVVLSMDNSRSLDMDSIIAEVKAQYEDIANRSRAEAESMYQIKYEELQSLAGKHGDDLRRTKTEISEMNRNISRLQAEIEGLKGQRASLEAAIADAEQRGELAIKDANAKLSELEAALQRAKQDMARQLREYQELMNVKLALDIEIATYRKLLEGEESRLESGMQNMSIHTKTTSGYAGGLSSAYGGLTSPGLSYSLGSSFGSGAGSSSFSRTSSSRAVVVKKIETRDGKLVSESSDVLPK
Sequence of K8 WT/K18 WT (transfected) (from UniProt P05787;P05783) K18:I149V (P05783 whole entry, stated change not applied): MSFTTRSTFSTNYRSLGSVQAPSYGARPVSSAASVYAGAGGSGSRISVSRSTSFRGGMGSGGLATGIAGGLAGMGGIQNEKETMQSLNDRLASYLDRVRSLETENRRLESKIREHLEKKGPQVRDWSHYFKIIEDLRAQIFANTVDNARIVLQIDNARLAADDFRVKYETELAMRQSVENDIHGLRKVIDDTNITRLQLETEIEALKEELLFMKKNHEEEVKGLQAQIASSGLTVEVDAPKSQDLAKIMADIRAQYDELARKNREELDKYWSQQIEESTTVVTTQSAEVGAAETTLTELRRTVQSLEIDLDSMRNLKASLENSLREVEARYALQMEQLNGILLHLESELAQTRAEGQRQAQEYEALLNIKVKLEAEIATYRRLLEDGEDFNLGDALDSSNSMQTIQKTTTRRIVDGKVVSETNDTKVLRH
Sequence of K8 WT/K18 WT (transfected) (from UniProt P05787;P05783) K8:A319S (P05787 whole entry, stated change not applied): as the sequence (P05787 whole entry, stated change not applied) above
Sequence of K8 WT/K18 WT (transfected) (from UniProt P05787;P05783) K8:A319S (P05783 whole entry, stated change not applied): as the sequence (P05783 whole entry, stated change not applied) above
Sequence of K8 WT/K18 WT (transfected) (from UniProt P05787;P05783) K18:Q284R (P05787 whole entry, stated change not applied): as the sequence (P05787 whole entry, stated change not applied) above
Sequence of K8 WT/K18 WT (transfected) (from UniProt P05787;P05783) K18:Q284R (P05783 whole entry, stated change not applied): as the sequence (P05783 whole entry, stated change not applied) above
Sequence of K8 WT/K18 WT (transfected) (from UniProt P05787;P05783) K8:R341H (P05787 whole entry, stated change not applied): as the sequence (P05787 whole entry, stated change not applied) above
Sequence of K8 WT/K18 WT (transfected) (from UniProt P05787;P05783) K8:R341H (P05783 whole entry, stated change not applied): as the sequence (P05783 whole entry, stated change not applied) above
Sequence of K8 WT/K18 WT (transfected) (from UniProt P05787;P05783) K8:R454C (P05787 whole entry, stated change not applied): as the sequence (P05787 whole entry, stated change not applied) above
Sequence of K8 WT/K18 WT (transfected) (from UniProt P05787;P05783) K8:R454C (P05783 whole entry, stated change not applied): as the sequence (P05783 whole entry, stated change not applied) above
Sequence of K8 WT/K18 WT (transfected) (from UniProt P05787;P05783) K18:T294M (P05787 whole entry, stated change not applied): as the sequence (P05787 whole entry, stated change not applied) above
Sequence of K8 WT/K18 WT (transfected) (from UniProt P05787;P05783) K18:T294M (P05783 whole entry, stated change not applied): as the sequence (P05783 whole entry, stated change not applied) above
Sequence of K8 WT/K18 WT (transfected) (from UniProt P05787;P05783) K8:Y54H (P05787 whole entry, stated change not applied): as the sequence (P05787 whole entry, stated change not applied) above
Sequence of K8 WT/K18 WT (transfected) (from UniProt P05787;P05783) K8:Y54H (P05783 whole entry, stated change not applied): as the sequence (P05783 whole entry, stated change not applied) above

ratio to parent | Substance
1.6 | K8 WT/K18 WT (transfected) (from UniProt P05787;P05783) K18:T294M
1.1 | K8 WT/K18 WT (transfected) (from UniProt P05787;P05783) K18:I149V
1.3 | K8 WT/K18 WT (transfected) (from UniProt P05787;P05783) K18:Q284R

Same assay, conditions: BHK-21 cells transfected with Akt WT, K18 WT and the K8 mutant; parent: est. 1.0; read off a plot

ratio to parent | Substance
0.93 | K8 WT/K18 WT (transfected) (from UniProt P05787;P05783) K8:A319S
1.1 | K8 WT/K18 WT (transfected) (from UniProt P05787;P05783) K8:R454C
1.1 | K8 WT/K18 WT (transfected) (from UniProt P05787;P05783) K8:Y54H
0.92 | K8 WT/K18 WT (transfected) (from UniProt P05787;P05783) K8:R341H

— publication PMC8430995
